Test results taken from paper PMC8396345, “Target Affinity and Structural Analysis for a Selection of Norovirus Aptamers”.

B1: AG3 (ssDNA)
DNA: GCTAGCGAATTCCGTACGAAGGGCGAATTCCACATTGGGCTGCAGCCCGGGGGATCC
B2: Beier (ssDNA)
DNA: GTCTGTAGTAGGGAGGATGGTCCGGGGCCCCGAGACGACGTTATCAGGC
B3: SMV21 (ssDNA)
DNA: CCATGTTTTGTAGGTGTAATAGGTCATGTTAGGGTTTCTG
B4: Buf-2 (structured_DNA)
DNA: GAAATTGGGTTCGGGTTTGGGTTGGGATTACTTAGCGATG
B5: M6-2 (ssDNA)
DNA: TGGGAAGAGGTCCGGTAAATGCAGGGTCAGCCCGGAGAG
B6: M1 (ssDNA)
DNA: TGTTTATGGGGATAAACGTATCTAATTCGTGTACTAATCA
B7: SMV19 (ssDNA)
DNA: CACCAGTGTGTTGAGGTTTGAGCACACTGATAGAGTGTCA

Tests used:
[1] = target: T1, norovirus GI.1 VLP (major capsid protein VP1) (Norovirus GI.1, UniProt Q83884 1-530); experiment: filter binding; Kd not determined; FRA: 1 nM 32P-aptamer, 0-1500 nM VLP, 60 min, each aptamer's original selection buffer (M1, M6-2, SMV19, SMV21: PBS pH 7.4; others in Table S1, not in material); FRA temperature not stated; pull-down at room temperature; settings: protein: recombinant, chain copies: 180, label: 5'-32P (FRA)
T1 sequence (Q83884 whole entry): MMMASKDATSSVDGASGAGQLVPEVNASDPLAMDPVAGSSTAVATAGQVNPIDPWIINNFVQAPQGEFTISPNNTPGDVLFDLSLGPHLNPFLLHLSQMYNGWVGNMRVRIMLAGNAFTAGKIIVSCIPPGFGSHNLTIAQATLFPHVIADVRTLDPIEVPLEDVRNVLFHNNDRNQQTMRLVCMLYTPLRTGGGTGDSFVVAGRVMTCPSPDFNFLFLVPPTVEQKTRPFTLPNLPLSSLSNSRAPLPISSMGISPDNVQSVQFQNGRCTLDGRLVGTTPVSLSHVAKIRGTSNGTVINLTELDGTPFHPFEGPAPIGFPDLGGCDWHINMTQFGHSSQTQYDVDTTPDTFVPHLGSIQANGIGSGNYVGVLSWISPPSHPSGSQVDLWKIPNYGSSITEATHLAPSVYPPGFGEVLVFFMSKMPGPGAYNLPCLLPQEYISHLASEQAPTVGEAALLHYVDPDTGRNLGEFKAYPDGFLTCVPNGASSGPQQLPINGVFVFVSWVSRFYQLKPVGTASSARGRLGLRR

[2] = target: T1, norovirus GI.1 VLP (major capsid …); experiment: filter binding; <10% bound at 1500 nM; FRA: 1 nM 32P-aptamer, 0-1500 nM VLP, 60 min, each aptamer's original selection buffer (M1, M6-2, SMV19, SMV21: PBS pH 7.4; others in Table S1, not in material); FRA temperature not stated; pull-down at room temperature; settings: protein: recombinant; chain copies: 180; label: 5'-32P (FRA); B-DNA-like CD

Binder | binding result ([1]; B-DNA-like CD) | also measured
B1 | no binding | –
B2 | no binding | –
B3 | no binding | –
B4 | – | binding result ([1]; inter- or intramolecular not resolved): no binding
B5 | – | binding result [2]: no binding
B6 | – | binding result [2]: no binding
B7 | no binding | –
